Article PMC11695829, “DSIF factor Spt5 coordinates transcription, maturation and exoribonucleolysis of RNA polymerase II transcripts” (Nature Communications, 2025)

T1: Full-length Spt4/5 heterodimer (DSIF) (S. pombe, UniProt O13936 1-990; Q9P7K8 1-105)
T1 construct: Spt5 of S. pombe, full length; Spt4 of S. pombe, full length; Co-expressed heterodimer, used as one preformed complex in all in vitro experiments; Only the Kow5 domain of Spt5 is seen in the cryo-EM map; also called Spt5-Spt4; Spt5
T1 sequence (looked up) 1: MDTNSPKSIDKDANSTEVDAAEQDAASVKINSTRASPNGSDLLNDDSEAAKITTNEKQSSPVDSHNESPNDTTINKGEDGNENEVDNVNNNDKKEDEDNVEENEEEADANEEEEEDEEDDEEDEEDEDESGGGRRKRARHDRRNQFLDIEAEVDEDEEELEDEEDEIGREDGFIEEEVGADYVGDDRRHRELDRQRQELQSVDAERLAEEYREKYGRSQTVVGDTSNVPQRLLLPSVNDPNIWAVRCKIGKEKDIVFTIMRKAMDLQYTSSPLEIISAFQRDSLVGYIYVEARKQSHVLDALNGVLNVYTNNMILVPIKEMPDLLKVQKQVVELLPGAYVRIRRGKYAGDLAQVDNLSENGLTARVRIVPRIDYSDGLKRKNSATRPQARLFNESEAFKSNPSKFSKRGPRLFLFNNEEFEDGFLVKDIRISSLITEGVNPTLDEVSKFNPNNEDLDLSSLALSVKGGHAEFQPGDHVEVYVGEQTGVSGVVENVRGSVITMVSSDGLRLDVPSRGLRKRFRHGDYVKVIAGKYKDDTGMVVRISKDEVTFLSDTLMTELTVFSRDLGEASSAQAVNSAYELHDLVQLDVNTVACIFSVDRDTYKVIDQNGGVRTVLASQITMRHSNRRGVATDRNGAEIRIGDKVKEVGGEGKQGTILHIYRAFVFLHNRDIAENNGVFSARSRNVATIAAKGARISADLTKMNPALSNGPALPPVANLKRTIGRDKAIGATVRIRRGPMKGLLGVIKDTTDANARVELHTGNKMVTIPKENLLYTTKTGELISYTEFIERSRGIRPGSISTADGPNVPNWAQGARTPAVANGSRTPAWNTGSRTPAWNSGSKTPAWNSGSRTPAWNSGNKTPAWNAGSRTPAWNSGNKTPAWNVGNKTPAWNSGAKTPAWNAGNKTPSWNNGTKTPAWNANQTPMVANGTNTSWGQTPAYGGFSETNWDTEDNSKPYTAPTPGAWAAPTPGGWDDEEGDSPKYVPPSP
T1 sequence (looked up) 2: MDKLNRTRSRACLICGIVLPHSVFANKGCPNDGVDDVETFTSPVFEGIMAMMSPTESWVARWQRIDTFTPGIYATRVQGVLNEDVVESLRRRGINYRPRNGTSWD

B1: Kow5-sCTR (Spt5 region 720 to 874 aa, N-terminal His-tag) (domain or fragment)
chain: LKRTIGRDKAIGATVRIRRGPMKGLLGVIKDTTDANARVELHTGNKMVTIPKENLLYTTKTGELISYTEFIERSRGIRPGSISTADGPNVPNWAQGARTPAVANGSRTPAWNTGSRTPAWNSGSKTPAWNSGSRTPAWNSGNKTPAWNAGSRTPA
B2: full-length Rai1 Strep-tagged (natural protein, S. pombe, UniProt O13836 1-352, looked up)
chain: MLREFSFYDVPPAHVPPVSEPLEIACYSLSRDRELLLDDSKLSYYYPPPLFSDLNTGFPNRFHPPKSDPDPISIVKDVLMTKGIQMNSSFLTWRGLITKIMCAPLDPRNHWETYLVMDPTSGIIMMEERTRSETSYANQDRMCYWGYKFEAISTLPEIWDACSRDQIEQRDNQDVVPDEQYCSIVKINIGKSKLILAGEVDCIWDKKPCSAKESDVHSDDGTIEEDASNAENPNLHYVELKTSKKYPLENYGMRKKLLKYWAQSFLLGIGRIIIGFRDDNGILIEMKELFTHQIPKMLRPYFKPNDWTPNRLLVVLEHALEWIKQTVKQHPPSTEFTLSYTGGSKLVLRQII
notes: source: Rosetta E. coli, purified (StrepTrap HP, Superdex 200)

Columns and labels:
[1] = molecular target: C-terminally truncated Xrn2 (residues 1–885), WT (S. pombe)
[2] = molecular target: T1, Full-length Spt4/5 heterodimer (DSIF); assay: pull-down; Rai1 immobilised on beads and challenged with Xrn2 or Xrn2/Spt4/5; no Pol II; details: both partners purified

Binder | half-life of normalised anisotropy (a proxy for substrate half-life) in the degradation of P-RNA-FAM by Xrn2, fluorescence anisotropy; decrease in the presence of Kow5-sCTR [1] [fold] | binding result [2]
B1 | 3 | –
B2 | – | binds
